# Data reported in patent US20180360932A1 (OPKO BIOLOGICS, published 2018).
# Legend:
# [1] = target: MOD-5014 (FVIIa-CTP3, activated Factor VII-CTP-CTP-CTP) (human) (UniProt P08709); assay: cell-based or functional assay
# [2] = target: NovoSeven (commercial recombinant human FVIIa) (human) (UniProt P08709); assay: cell-based or functional assay
# Sequence of Tissue Factor Pathway Inhibitor (TFPI) (P10646 29-304 limits assumed): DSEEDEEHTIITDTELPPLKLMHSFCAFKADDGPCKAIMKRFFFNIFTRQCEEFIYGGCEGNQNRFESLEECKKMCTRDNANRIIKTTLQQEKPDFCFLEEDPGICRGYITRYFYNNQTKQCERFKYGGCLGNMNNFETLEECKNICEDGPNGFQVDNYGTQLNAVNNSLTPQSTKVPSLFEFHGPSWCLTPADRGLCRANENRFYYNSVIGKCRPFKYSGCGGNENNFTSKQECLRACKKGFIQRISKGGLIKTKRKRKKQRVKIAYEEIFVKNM
substance,measurement,setting,value
Tissue Factor Pathway Inhibitor (TFPI) (from UniProt P10646 29-304),"% Inhibition of clotting activity, TFPI 0.625 ng/mL",[1],15%
same,"% Inhibition of clotting activity, TFPI 6.25 ng/mL",[1],15%
same,"% Inhibition of clotting activity, TFPI 62.5 ng/mL",[1],29%
same,"% Inhibition of clotting activity, TFPI 625 ng/mL",[1],80%
same,"% Inhibition of clotting activity, TFPI 1250 ng/mL",[1],89%
same,"Activity (mU/mL), clotting assay, TFPI 0 ng/mL (no inhibitor)",[1],66.8 mU/mL
same,"Activity (mU/mL), clotting assay, TFPI 0.625 ng/mL",[1],56.7 mU/mL
same,"Activity (mU/mL), clotting assay, TFPI 6.25 ng/mL",[1],56.7 mU/mL
same,"Activity (mU/mL), clotting assay, TFPI 62.5 ng/mL",[1],47.4 mU/mL
same,"Activity (mU/mL), clotting assay, TFPI 625 ng/mL",[1],13.2 mU/mL
same,"Activity (mU/mL), clotting assay, TFPI 1250 ng/mL",[1],7.3 mU/mL
same,"FX activation by MOD-5014 (0.7 ng/ml) + 1 U/µl heparin, TFPI 0.002048 ng/ml",[1],1.27
same,"FX activation by MOD-5014 (0.7 ng/ml) + 1 U/µl heparin, TFPI 0.010240 ng/ml",[1],1.29
same,"FX activation by MOD-5014 (0.7 ng/ml) + 1 U/µl heparin, TFPI 0.051200 ng/ml",[1],1.35
same,"FX activation by MOD-5014 (0.7 ng/ml) + 1 U/µl heparin, TFPI 1.28 ng/ml",[1],1.26
same,"FX activation by MOD-5014 (0.7 ng/ml) + 1 U/µl heparin, TFPI 6.40 ng/ml",[1],1.16
same,"FX activation by MOD-5014 (0.7 ng/ml) + 1 U/µl heparin, TFPI 32.00 ng/ml",[1],0.915
same,"FX activation by MOD-5014 (0.7 ng/ml) + 1 U/µl heparin, TFPI 160.00 ng/ml",[1],0.539
same,"FX activation by MOD-5014 (0.7 ng/ml) + 1 U/µl heparin, TFPI 800.00 ng/ml",[1],0.32
same,"FX activation by MOD-5014 (0.7 ng/ml) + 1 U/µl heparin, TFPI 4000.00 ng/ml",[1],0.115
same,"FX activation by MOD-5014 (0.7 ng/ml) + 1 U/µl heparin, TFPI 20000.00 ng/ml",[1],0.15
same,"FX activation by MOD-5014 (0.7 ng/ml), Control",[1],1.37
same,"FX activation by MOD-5014 (4 ng/ml), Control (no TFPI)",[1],1.58
same,"FX activation by MOD-5014 (4 ng/ml), TFPI 0.002048 ng/ml",[1],1.65
same,"FX activation by MOD-5014 (4 ng/ml), TFPI 0.010240 ng/ml",[1],1.64
same,"FX activation by MOD-5014 (4 ng/ml), TFPI 0.051200 ng/ml",[1],1.6
same,"FX activation by MOD-5014 (4 ng/ml), TFPI 0.2560 ng/ml",[1],1.62
same,"FX activation by MOD-5014 (4 ng/ml), TFPI 1.28 ng/ml",[1],1.56
same,"FX activation by MOD-5014 (4 ng/ml), TFPI 6.40 ng/ml",[1],1.54
same,"FX activation by MOD-5014 (4 ng/ml), TFPI 32.00 ng/ml",[1],1.47
same,"FX activation by MOD-5014 (4 ng/ml), TFPI 160.00 ng/ml",[1],1.14
same,"FX activation by MOD-5014 (4 ng/ml), TFPI 800.00 ng/ml",[1],0.836
same,"FX activation by MOD-5014 (4 ng/ml), TFPI 4000.00 ng/ml",[1],0.38
same,"FX activation by MOD-5014 (4 ng/ml), TFPI 20000.00 ng/ml",[1],0.17
same,"O.D, FX activation by MOD-5014 (0.69 ng/ml), Control (no TFPI)",[1],1.51 O.D
same,"O.D, FX activation by MOD-5014 (0.69 ng/ml), TFPI 0.002048 ng/ml",[1],1.48 O.D
same,"O.D, FX activation by MOD-5014 (0.69 ng/ml), TFPI 0.010240 ng/ml",[1],1.45 O.D
same,"O.D, FX activation by MOD-5014 (0.69 ng/ml), TFPI 0.051200 ng/ml",[1],1.45 O.D
same,"O.D, FX activation by MOD-5014 (0.69 ng/ml), TFPI 0.2560 ng/ml",[1],1.46 O.D
same,"O.D, FX activation by MOD-5014 (0.69 ng/ml), TFPI 1.28 ng/ml",[1],1.39 O.D
same,"O.D, FX activation by MOD-5014 (0.69 ng/ml), TFPI 6.40 ng/ml",[1],1.38 O.D
same,"O.D, FX activation by MOD-5014 (0.69 ng/ml), TFPI 32.00 ng/ml",[1],1.36 O.D
same,"O.D, FX activation by MOD-5014 (0.69 ng/ml), TFPI 160.00 ng/ml",[1],1.11 O.D
same,"O.D, FX activation by MOD-5014 (0.69 ng/ml), TFPI 800.00 ng/ml",[1],1.01 O.D
same,"O.D, FX activation by MOD-5014 (0.69 ng/ml), TFPI 4000.00 ng/ml",[1],0.691 O.D
same,"O.D, FX activation by MOD-5014 (0.69 ng/ml), TFPI 20000.00 ng/ml",[1],0.346 O.D
same,"% Inhibition of clotting activity, TFPI 0.625 ng/mL",[2],25%
same,"% Inhibition of clotting activity, TFPI 6.25 ng/mL",[2],24%
same,"% Inhibition of clotting activity, TFPI 62.5 ng/mL",[2],38%
same,"% Inhibition of clotting activity, TFPI 625 ng/mL",[2],87%
same,"% Inhibition of clotting activity, TFPI 1250 ng/mL",[2],96%
same,"Activity (mU/mL), clotting assay, TFPI 0 ng/mL (no inhibitor)",[2],72.3 mU/mL
same,"Activity (mU/mL), clotting assay, TFPI 0.625 ng/mL",[2],54.5 mU/mL
same,"Activity (mU/mL), clotting assay, TFPI 6.25 ng/mL",[2],55.3 mU/mL
same,"Activity (mU/mL), clotting assay, TFPI 62.5 ng/mL",[2],45 mU/mL
same,"Activity (mU/mL), clotting assay, TFPI 625 ng/mL",[2],9.5 mU/mL
same,"Activity (mU/mL), clotting assay, TFPI 1250 ng/mL",[2],2.9 mU/mL
same,"FX activation by NovoSeven (0.7 ng/ml) + 1 U/µl heparin, TFPI 0.002048 ng/ml",[2],1.33
same,"FX activation by NovoSeven (0.7 ng/ml) + 1 U/µl heparin, TFPI 0.010240 ng/ml",[2],1.3
same,"FX activation by NovoSeven (0.7 ng/ml) + 1 U/µl heparin, TFPI 0.051200 ng/ml",[2],1.37
same,"FX activation by NovoSeven (0.7 ng/ml) + 1 U/µl heparin, TFPI 1.28 ng/ml",[2],1.31
same,"FX activation by NovoSeven (0.7 ng/ml) + 1 U/µl heparin, TFPI 6.40 ng/ml",[2],1.21
same,"FX activation by NovoSeven (0.7 ng/ml) + 1 U/µl heparin, TFPI 32.00 ng/ml",[2],1.01
same,"FX activation by NovoSeven (0.7 ng/ml) + 1 U/µl heparin, TFPI 160.00 ng/ml",[2],0.764
same,"FX activation by NovoSeven (0.7 ng/ml) + 1 U/µl heparin, TFPI 800.00 ng/ml",[2],0.409
same,"FX activation by NovoSeven (0.7 ng/ml) + 1 U/µl heparin, TFPI 4000.00 ng/ml",[2],0.241
same,"FX activation by NovoSeven (0.7 ng/ml) + 1 U/µl heparin, TFPI 20000.00 ng/ml",[2],0.222
same,"FX activation by NovoSeven (0.7 ng/ml), Control",[2],1.47
same,"FX activation by NovoSeven (4 ng/ml), Control (no TFPI)",[2],1.66
same,"FX activation by NovoSeven (4 ng/ml), TFPI 0.002048 ng/ml",[2],1.72
same,"FX activation by NovoSeven (4 ng/ml), TFPI 0.010240 ng/ml",[2],1.7
same,"FX activation by NovoSeven (4 ng/ml), TFPI 0.051200 ng/ml",[2],1.73
same,"FX activation by NovoSeven (4 ng/ml), TFPI 0.2560 ng/ml",[2],1.7
same,"FX activation by NovoSeven (4 ng/ml), TFPI 1.28 ng/ml",[2],1.66
same,"FX activation by NovoSeven (4 ng/ml), TFPI 6.40 ng/ml",[2],1.59
same,"FX activation by NovoSeven (4 ng/ml), TFPI 32.00 ng/ml",[2],1.5
same,"FX activation by NovoSeven (4 ng/ml), TFPI 160.00 ng/ml",[2],1.34
same,"FX activation by NovoSeven (4 ng/ml), TFPI 800.00 ng/ml",[2],1.02
same,"FX activation by NovoSeven (4 ng/ml), TFPI 4000.00 ng/ml",[2],0.406
same,"FX activation by NovoSeven (4 ng/ml), TFPI 20000.00 ng/ml",[2],0.206
same,"O.D, FX activation by NovoSeven (0.64 ng/ml), Control (no TFPI)",[2],1.51 O.D
same,"O.D, FX activation by NovoSeven (0.64 ng/ml), TFPI 0.002048 ng/ml",[2],1.5 O.D
same,"O.D, FX activation by NovoSeven (0.64 ng/ml), TFPI 0.010240 ng/ml",[2],1.51 O.D
same,"O.D, FX activation by NovoSeven (0.64 ng/ml), TFPI 0.051200 ng/ml",[2],1.52 O.D
same,"O.D, FX activation by NovoSeven (0.64 ng/ml), TFPI 0.2560 ng/ml",[2],1.43 O.D
same,"O.D, FX activation by NovoSeven (0.64 ng/ml), TFPI 1.28 ng/ml",[2],1.47 O.D
same,"O.D, FX activation by NovoSeven (0.64 ng/ml), TFPI 6.40 ng/ml",[2],1.42 O.D
same,"O.D, FX activation by NovoSeven (0.64 ng/ml), TFPI 32.00 ng/ml",[2],1.38 O.D
same,"O.D, FX activation by NovoSeven (0.64 ng/ml), TFPI 160.00 ng/ml",[2],1.34 O.D
same,"O.D, FX activation by NovoSeven (0.64 ng/ml), TFPI 800.00 ng/ml",[2],1.04 O.D
same,"O.D, FX activation by NovoSeven (0.64 ng/ml), TFPI 4000.00 ng/ml",[2],0.83 O.D
same,"O.D, FX activation by NovoSeven (0.64 ng/ml), TFPI 20000.00 ng/ml",[2],0.429 O.D
